In patent publication US20040259795A1:

Assays:
[1] = target: soluble recombinant human CD14 (rHu-LAIT) (human) (UniProt P08571); assay: cell-based or functional assay
[2] = target: soluble recombinant bovine CD14 (rBo-LAIT) (bovine) (UniProt Q95122); assay: cell-based or functional assay
UniProt Q95122, sequence (Q95122 21-373 S209T limits assumed): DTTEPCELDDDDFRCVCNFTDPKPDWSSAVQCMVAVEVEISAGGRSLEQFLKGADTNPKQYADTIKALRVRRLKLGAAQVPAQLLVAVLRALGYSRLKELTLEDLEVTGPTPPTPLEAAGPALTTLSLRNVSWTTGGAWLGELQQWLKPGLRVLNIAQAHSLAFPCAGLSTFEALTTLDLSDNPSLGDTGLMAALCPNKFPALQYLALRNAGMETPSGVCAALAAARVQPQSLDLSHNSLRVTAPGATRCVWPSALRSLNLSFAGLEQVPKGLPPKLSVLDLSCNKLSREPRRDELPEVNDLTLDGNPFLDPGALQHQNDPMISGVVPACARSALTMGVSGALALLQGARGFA

UniProt P08571, sequence (P08571 20-345 C187Y limits assumed): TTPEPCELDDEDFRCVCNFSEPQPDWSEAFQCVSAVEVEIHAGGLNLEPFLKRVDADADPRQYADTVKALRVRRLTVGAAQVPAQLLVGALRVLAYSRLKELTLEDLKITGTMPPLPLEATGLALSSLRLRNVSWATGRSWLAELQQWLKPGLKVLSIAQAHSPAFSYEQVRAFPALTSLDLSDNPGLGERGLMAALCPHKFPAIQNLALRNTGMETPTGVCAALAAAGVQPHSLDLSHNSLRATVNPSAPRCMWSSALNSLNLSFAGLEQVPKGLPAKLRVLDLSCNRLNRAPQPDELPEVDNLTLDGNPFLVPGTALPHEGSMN

IgG2b isotype non-specific mAb OX40 (antibody)
< 15%: inhibition of B cell activation (3H-TdR uptake, percent of response without mAb) [1] | inhibition of B cell activation (3H-TdR uptake, percent of response without mAb) [2] | inhibition of induction of mIg+ 70Z/3 cells (flow cytometry) [2]
